The target in the test is HIV-1 BG505.W6M.Env.C2 pseudovirus (Env) (HIV-1). Nature of the test: cell-based or functional assay.

VRC34 (antibody): the Fold change GFP-/GFP+ (droplet neutralization, NGS reads), Round 1 came to 1.78.

The substance anti-HIV antibody VRC01 displayed a Fold change GFP-/GFP+ (droplet neutralization, NGS reads), Round 1 of 1.08.

The record behind these values is patent US20230221313A1.
